The record followed here is patent US11110115B2, “Nucleic acid molecule with anti-inflammatory and anti-coagulant and organ-protective properties” (APTAHEM AB, priority 2017, dated 2021).

“Also recorded” adds a separate entry of the source.

A short description of series [1]: Prothrombin time in arteriovenous shunt model. Type of series: in vivo, Sprague-Dawley male rats. The following applies: SEQ ID NO:2 33.3 mg/kg i.v. 5 min prior; Rivaroxaban 10 mg/kg p.o. 90 min prior. The procedure: FIG. 2: Anti-coagulant activity of SEQ ID NO:2 in Arteriovenous Shunt model. Male rats were intravenously injected with saline (Vehicle) or SEQ ID NO:2 solution, according to their body weight. Rivaroxaban was orally administered to the positive control group. 5 to 90 minutes after administration, rats were anesthetized with pentobarbital-na (50 mg/kg). The left jugular vein and the right carotid artery of anesthetized rats were connected with two catheters. The thrombus weight formed on the thread was calculated by subtracting the average weight of the rough nylon thread (A). Prothrombin times were measured (B) and Activated partial thromboplastin times (APTT) were analysed (C). Each bar represents the mean±SEM (n=8 for vehicle and rivaroxaban groups, n=3 for SEQ ID NO:2 group), *p<0.05, **p<0.01, ***p<0.001 vs Vehicle.
The animals were assigned to 3 dosing groups according to the body weight (see table 2). Vehicle treated animals were intravenously injected with saline 90 min prior to shunt assay. The positive control treated animals were orally given Rivaroxaban 10 mg/kg at 90 min prior to shunt assay. SEQ ID NO:2 was intravenously injected 5 min prior to shunt assay.

The nature of series [2]: Comparable ex vivo APTT study, mouse.
A short description of series [3]: LPS-induced mortality, survival assay. Type of series: in vivo, C57BL/6 mice. The following applies: 72 hours. On the procedure: In this study, female C57BL/6 mice of 10-12 weeks old (Taconic Biosciences) were used. Animals had free access to autoclaved and acidified drinking water. Animals were housed under standard laboratory conditions, air conditioned and filtered with adequate fresh air supply. Animals were kept in a climate controlled environment.
Lipopolysaccharide (LPS) from E. coli (O111:B4) was diluted in PBS.
SEQ ID NO:2 was stored in powder form at 4° C. until use. Powder was added to saline and vortexed into solution to prepare SEQ ID NO:2 stock solution.
For all other groups, LPS was injected intraperitoneally at 10 mg/kg. Mice were intravenously injected 15 minutes and 60 minutes after LPS administration with SEQ ID NO:2 at concentrations of 10, 25, 50 and 100 mg/kg. Except group 6, which was intravenously injected once at 15 minutes and once at 120 minutes after LPS administration.
When high doses of LPS are administered, animals will suffer LPS-induced shock and mortality may be observed. For 72 hours after LPS injection, mice were checked for mortality several times each day. All surviving mice were euthanized at the end of the study (day 3).

The nature of series [4]: Expanded toxicology panel of serum in LPS-induced shock. Type of series: in vivo, C57BL/6 mice. The following applies: blood at Hour 28. On the procedure: In this study, female C57BL/6 mice of 10-12 weeks old (Taconic Biosciences) were used. Animals had free access to autoclaved and acidified drinking water. Animals were housed under standard laboratory conditions, air conditioned and filtered with adequate fresh air supply. Animals were kept in a climate-controlled environment. Lipopolysaccharide (LPS) from E. coli (O111:B4) was diluted in PBS. SEQ ID NO:2 was stored in powder form at 4° C. until use. Powder was added to saline and vortexed into solution to prepare SEQ ID NO:2 stock solution. […] For all other groups, LPS was injected intraperitoneally at 10 mg/kg. Mice were intravenously injected 15 minutes and 60 minutes after LPS administration with SEQ ID NO:2 at concentrations of 10, 25, 50 and 100 mg/kg. […] Blood collected at Hour 28 was analyzed for expanded toxicology panel performed by IDEXX Laboratories, Inc. (N. Grafton, Mass.). We attempted to collect enough blood to run each analysis 5 times for each group. The extended toxicology analysis measured concentrations of AST, ALT, creatine kinase, albumin, total protein, BUN, cholesterol, glucose, phosphorus, triglycerides, HDL cholesterol, bile acid, LDL cholesterol, total bilirubin, GGT, bilirubin conjugated, and creatinine. Here, results are shown for AST, ALT, creatine kinase, albumin, total protein, BUN, cholesterol, phosphorus, triglycerides, cholesterol, and creatinine.

Series [5] can be described thus: Fibrinogen and D-dimer analysis of plasma in LPS-induced shock. Format: in vivo, C57BL/6 mice. Conditions: blood at Hour 28. The procedure:
In this study, female C57BL/6 mice of 10-12 weeks old (Taconic Biosciences) were used. Animals had free access to autoclaved and acidified drinking water. Animals were housed under standard laboratory conditions, air conditioned and filtered with adequate fresh air supply. Animals were kept in a climate-controlled environment. Lipopolysaccharide (LPS) from E. coli (O111:B4) was diluted in PBS. SEQ ID NO:2 was stored in powder form at 4° C. until use. Powder was added to saline and vortexed into solution to prepare SEQ ID NO:2 stock solution. […] For all other groups, LPS was injected intraperitoneally at 10 mg/kg. Mice were intravenously injected 15 minutes and 60 minutes after LPS administration with SEQ ID NO:2 at concentrations of 10, 25, 50 and 100 mg/kg. Except group 7, which was intravenously injected once at 15 minutes and once at 120 minutes after LPS administration. Blood collected at Hour 28 was analysed for fibrinogen and D-dimer analysis from citrated plasma performed by IDEXX Laboratories, Inc. (N. Grafton, Mass.). Hook Laboratories attempted to collect enough blood to run each analysis 5 times for each group, but in one case (citrated plasma for D-dimer, for Group 4) we were able to collect only enough blood to run the analysis 4 times.

Where [6] appears, read: 50 mg/kg at 15 and 60 min after LPS.
Setting [7] is: 50 mg/kg at 60 and 120 min after LPS.
The mark [8] stands for this setting: groups treated i.v. with SEQ ID NO:2 after LPS.
The mark [9] stands for this setting: overall, groups treated i.v. with SEQ ID NO:2.

B1: SEQ ID NO:2: nucleic acid sequence of SEQ ID NO:1 in which each C and U is fluorinated to increase stability in plasma (nucleic acid)
chain: GGGAAUUCGAGCUCGGUACCAACAAUACGACUACACCAUCAAAAGUAUUAUCUUGCAUCGAAGGUUGGCACGUAGCAAGCUCUGCAGUCG
modifications: fluorinated C and U; (6)..(7) uracil is fluorinated; (8)..(8) cytosine is fluorinated; (12)..(12) cytosine is fluorinated; (13)..(13) uracil is fluorinated; (14)..(14) cytosine is fluorinated; (17)..(17) uracil is fluorinated; (19)..(20) cytosine is fluorinated; (23)..(23) cytosine is fluorinated; (26)..(26) uracil is fluorinated; (28)..(28) cytosine is fluorinated; (31)..(31) cytosine is fluorinated; (32)
B1: the “Prothrombin times compared to vehicle group” value in series [1] is given as “did not show any significant difference”. Also, in series [2], the “positive effect on APTT” value was “confirmed”. In addition, the “survival compared to vehicle treated mice” value in series [3] (25 mg/kg i.v. twice after LPS 10 mg/kg i.p.) was “significantly improved”. Further, in series [3] (50 mg/kg i.v. twice after LPS 10 mg/kg i.p.), the “survival compared to vehicle treated mice” value is on record as “significantly improved”. In series [3] (100 mg/kg i.v. twice after LPS 10 mg/kg i.p.), the “survival compared to vehicle treated mice” value is “significantly improved”. Besides, in series [4] (25 mg/kg at 15 and 60 min after LPS), the Cholesterol in serum result is “significant improvements”. In series [4] (setting [6]), the Cholesterol in serum entry was “significant improvements” and the Creatinine in serum entry was “significant improvements”. In series [4] (setting [7]), the Creatinine in serum entry was “significant improvements” and the Triglycerides in serum entry is “significant improvements”. Moreover, in series [4] (setting [8]), the “serum concentration of ALT compared to vehicle treated group” value is “did not reach statistical significance”, the “serum concentration of AST compared to vehicle treated group” value was “improvements; also recorded: significantly improved”, the “serum concentration of BUN compared to vehicle treated group” value is on record as “improvements; also recorded: significantly improved” and the “serum concentration of creatine kinase compared to vehicle treated group” value was “did not reach statistical significance”. Also, in series [4] (setting [8]), the “serum concentration of phosphorus compared to vehicle treated group” value is “improvements; also recorded: significantly improved”. Moreover, in series [4] (setting [9]), the “serum concentration of cholesterol compared to vehicle treated group” value is “significantly improved”, the “serum concentration of creatinine compared to vehicle treated group” value was “significantly improved” and the “serum concentration of triglycerides compared to vehicle treated group” value was “significantly improved”. Besides, in series [5] (50 mg/kg at 60 and 120 minutes after LPS), the “Plasma D-dimer concentrations compared to vehicle treated group” value is “significantly lower”. For the same molecule, the “Plasma D-dimer concentrations compared to vehicle treated group” value in series [5] (50 mg/kg at 60 and 120 minutes after LPS, listed as Apta-1) was “greatest reductions”. In addition, the “Plasma D-dimer concentrations compared to vehicle treated group” value in series [5] (100 mg/kg at 15 and 60 min after LPS) is given as “significantly lower”. The “D-dimer in plasma, dose dependence” value in series [5] (10, 25, 50, 100 mg/kg i.v. after LPS) is reported as “reduced D-dimer in a dose dependent manner”. Besides, in series [5] (SEQ ID NO:2 treated mice (10, 25, 50, 100 mg/kg i.v.)), the “fibrinogen concentrations in plasma compared to vehicle treated mice” value is listed as “no significant differences”.
